Measurements published in patent US20220135656A1.

What was measured:
[1] = target: rye proteins (rye prolamins) (rye); test: indirect ELISA on coated Rye, duplicate 2
oat proteins (oat) [2] = test: indirect ELISA on coated Oat, duplicate 2
[3] = target: wheat proteins (wheat prolamins) (wheat); test: indirect ELISA on coated Wheat, duplicate 1
[4] = target: barley proteins (barley prolamins) (barley); test: indirect ELISA on coated Barley, duplicate 2
[5] = target: 33-mer gluten specific peptide (wheat); test: indirect ELISA on coated 33-Mer, duplicate 1
[6] = target: rye proteins (rye prolamins) (rye); test: indirect ELISA on coated Rye, duplicate 1
[7] = target: wheat proteins (wheat prolamins) (wheat); test: indirect ELISA on coated Wheat, duplicate 2
PWG-gliadin (wheat) = test: SPR, Biacore T200; Glutenin amine-coupled to the chip, antibody as analyte 20-320 nM; 1:1 binding fit; Chi2 1.1 RU2, U-value 5
[8] = target: barley proteins (barley prolamins) (barley); test: indirect ELISA on coated Barley, duplicate 1
oat proteins (oat) [9] = test: indirect ELISA on coated Oat, duplicate 1
[10] = target: 33-mer gluten specific peptide (wheat); test: indirect ELISA on coated 33-Mer, duplicate 2

Chain of 33-mer gluten specific peptide (wheat) (peptide, as listed by the source): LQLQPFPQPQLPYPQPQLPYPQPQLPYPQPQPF

- ELISA absorbance at 0 ng/ml antibody (blank) [1]: 0.042
- ELISA absorbance at 0.8 ng/ml antibody [1]: 0.174
- ELISA absorbance at 4 ng/ml antibody [1]: 0.671
- ELISA absorbance at 20 ng/ml antibody [1]: 1.61
- ELISA absorbance at 0 ng/ml antibody (blank) (oat proteins (oat) [2]): 0.044
- ELISA absorbance at 0.8 ng/ml antibody (oat proteins (oat) [2]): 0.055
- ELISA absorbance at 4 ng/ml antibody (oat proteins (oat) [2]): 0.043
- ELISA absorbance at 20 ng/ml antibody (oat proteins (oat) [2]): 0.048
- ELISA absorbance at 0 ng/ml antibody (blank) [3]: 0.039
- ELISA absorbance at 0.8 ng/ml antibody [3]: 0.133
- ELISA absorbance at 4 ng/ml antibody [3]: 0.534
- ELISA absorbance at 20 ng/ml antibody [3]: 1.5
- ELISA absorbance at 0 ng/ml antibody (blank) [4]: 0.042
- ELISA absorbance at 0.8 ng/ml antibody [4]: 0.171
- ELISA absorbance at 4 ng/ml antibody [4]: 0.659
- ELISA absorbance at 20 ng/ml antibody [4]: 1.61
- ELISA absorbance at 0 ng/ml antibody (blank) [5]: 0.04
- ELISA absorbance at 0.8 ng/ml antibody [5]: 0.039
- ELISA absorbance at 4 ng/ml antibody [5]: 0.048
- ELISA absorbance at 20 ng/ml antibody [5]: 0.067
- ELISA absorbance at 0 ng/ml antibody (blank) [6]: 0.039
- ELISA absorbance at 0.8 ng/ml antibody [6]: 0.165
- ELISA absorbance at 4 ng/ml antibody [6]: 0.651
- ELISA absorbance at 20 ng/ml antibody [6]: 1.56
- ELISA absorbance at 0 ng/ml antibody (blank) [7]: 0.043
- ELISA absorbance at 0.8 ng/ml antibody [7]: 0.133
- ELISA absorbance at 4 ng/ml antibody [7]: 0.534
- ELISA absorbance at 20 ng/ml antibody [7]: 1.52
- Kd (PWG-gliadin (wheat)): 203 nM
- koff (PWG-gliadin (wheat)): 0.0539 s⁻¹
- kon (PWG-gliadin (wheat)): 266000 M⁻¹ s⁻¹
- ELISA absorbance at 0 ng/ml antibody (blank) [8]: 0.041
- ELISA absorbance at 0.8 ng/ml antibody [8]: 0.165
- ELISA absorbance at 4 ng/ml antibody [8]: 0.63
- ELISA absorbance at 20 ng/ml antibody [8]: 1.62
- ELISA absorbance at 0 ng/ml antibody (blank) (oat proteins (oat) [9]): 0.043
- ELISA absorbance at 0.8 ng/ml antibody (oat proteins (oat) [9]): 0.041
- ELISA absorbance at 4 ng/ml antibody (oat proteins (oat) [9]): 0.042
- ELISA absorbance at 20 ng/ml antibody (oat proteins (oat) [9]): 0.043
- ELISA absorbance at 0 ng/ml antibody (blank) [10]: 0.04
- ELISA absorbance at 0.8 ng/ml antibody [10]: 0.04
- ELISA absorbance at 4 ng/ml antibody [10]: 0.052
- ELISA absorbance at 20 ng/ml antibody [10]: 0.118
Substance: R5 monoclonal antibody
